First the molecules themselves.
B1: glmS ribozyme (parent)
chain: AUAAAAGCGCCAGAACUACAGAAAUGUAGUUGACGAGGAGGAGGUUUAUCGAAUUUUCGGCGGAUGCCUCCAAA

± gives the standard error. Fewer inactive variants are shown than the library holds.

The variants in one series derive from B1. Briefly: self-cleavage kobs at 640 uM GlcN6P; higher = faster cleavage; RNA array. The following applies: with glucosamine-6-phosphate. Put shortly: (§1)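 Tiles bearing barcoded ribozyme variants, transcribed in situ by E. coli RNA polymerase on sequenced MiSeq chips, were imaged over ~14 h at 37 °C using a hybridised Cy3 probe. Glucosamine-6-phosphate was supplied at 40 μM to 10 mM in HEPES/KCl/Mg(OAc)2 buffer. kobs came from one- or two-exponential decay fits to normalised per-tile medians, and weighted Michaelis–Menten fits then provided kcat and KM.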
Take C34G A53C A64C: the “self-cleavage kobs at 640 uM GlcN6P” value is below 1e-05 s⁻¹. C16G U56C C58U: the “self-cleavage kobs at 640 uM GlcN6P” value was below 1e-05 s⁻¹. On to C11G G13A C70G, for which the “self-cleavage kobs at 640 uM GlcN6P” value is 0.000406 ± 0.00015 s⁻¹. As to U47G G51A A52G U65G, the “self-cleavage kobs at 640 uM GlcN6P” value was below 1e-05 s⁻¹. Same read-out and setting: the result for G29A G40C reads 5.68e-05 ± 1.5e-05 s⁻¹. The same measure, in the same setting: next, G9U A42G: below 1e-05 s⁻¹. Take G32A A36G A39C G41U G43U: the “self-cleavage kobs at 640 uM GlcN6P” value is below 1e-05 s⁻¹. Turning to G32C A36G G37U, the “self-cleavage kobs at 640 uM GlcN6P” value was below 1e-05 s⁻¹.

On to A3C U45A U65A, for which the “self-cleavage kobs at 640 uM GlcN6P” value was 0.00508 ± 0.0012 s⁻¹. The same measure, in the same setting: next, A36U A39U U45C C58U: below 1e-05 s⁻¹; G29C G44C C67G: 0.000127 ± 3.8e-05 s⁻¹.

In the case of G35U U57G C71A, the “self-cleavage kobs at 640 uM GlcN6P” value is below 1e-05 s⁻¹. G9C A64U G66C C70U C71U: the “self-cleavage kobs at 640 uM GlcN6P” value is below 1e-05 s⁻¹. The same measure, in the same setting: next, A15C A33C A36C: below 1e-05 s⁻¹; C11A G38A U47C: below 1e-05 s⁻¹; G7A G43U U49G G63C A64U: below 1e-05 s⁻¹.

Turning to A12U A33C G41U G62C, the “self-cleavage kobs at 640 uM GlcN6P” value was below 1e-05 s⁻¹. With G62U U69G, the “self-cleavage kobs at 640 uM GlcN6P” value turned out to be 3.47e-05 ± 1.3e-05 s⁻¹. The same measure, in the same setting: next, G9C G29A G32A: below 1e-05 s⁻¹.

A further series covers variants of B1. Nature of the series: self-cleavage kobs at 2500 uM GlcN6P; higher = faster cleavage; RNA array. The following applies: with glucosamine-6-phosphate. The procedure, abridged: as §1
On to C11G G13A C70G, for which the “self-cleavage kobs at 2500 uM GlcN6P” value is 6.69e-05 ± 3.1e-05 s⁻¹. The same measure, in the same setting: the result for U47G G51A A52G U65G reads below 1e-05 s⁻¹; that for C10G C34U U46C C70U, below 1e-05 s⁻¹; that for G29A G40C, 0.000243 ± 4.7e-05 s⁻¹. Same read-out and setting: the result for A6U A36U G37C A48U reads below 1e-05 s⁻¹; that for C16G G59U G60C C68G, below 1e-05 s⁻¹; that for A3C U45A U65A, 0.00657 ± 0.001 s⁻¹. As for A14G G37U G44U, the “self-cleavage kobs at 2500 uM GlcN6P” value is below 1e-05 s⁻¹. On to A48G U49G A52U A53G, for which the “self-cleavage kobs at 2500 uM GlcN6P” value is below 1e-05 s⁻¹. In the case of A36U A39U U45C C58U, the “self-cleavage kobs at 2500 uM GlcN6P” value is below 1e-05 s⁻¹. Still for that read-out and setting: the result for G43A U55C G59U C67G reads below 1e-05 s⁻¹; that for A12U A39U G40A, 0.00415 ± 0.0015 s⁻¹; that for G29C G44C C67G, 0.000256 ± 0.00011 s⁻¹. For A36U U55C C58G, the “self-cleavage kobs at 2500 uM GlcN6P” value is below 1e-05 s⁻¹. Take U31G U45C: the “self-cleavage kobs at 2500 uM GlcN6P” value came to 0.000406 ± 0.00014 s⁻¹.

Consider A52U C68U C70U, for which the “self-cleavage kobs at 2500 uM GlcN6P” value amounted to 5.68e-05 ± 1.7e-05 s⁻¹.

Consider G35U U57G C71A, for which the “self-cleavage kobs at 2500 uM GlcN6P” value is below 1e-05 s⁻¹. Same read-out and setting: next, A12C A33G: below 1e-05 s⁻¹; C10G G35U U46G C68A: below 1e-05 s⁻¹; C16U G29C A64G G66C: 0.000347 ± 0.00011 s⁻¹.

Take U30A U56A G60U: the “self-cleavage kobs at 2500 uM GlcN6P” value was below 1e-05 s⁻¹. As to G7A G43U U49G G63C A64U, the “self-cleavage kobs at 2500 uM GlcN6P” value is below 1e-05 s⁻¹. The same measure, in the same setting: the result for A14G C16G A64G U69G reads 5.19e-05 ± 2.3e-05 s⁻¹. For G35C A48G G51U U57G G60U, the “self-cleavage kobs at 2500 uM GlcN6P” value is below 1e-05 s⁻¹.

With A12U A33C G41U G62C, the “self-cleavage kobs at 2500 uM GlcN6P” value was below 1e-05 s⁻¹. As to G62U U69G, the “self-cleavage kobs at 2500 uM GlcN6P” value came to 0.000214 ± 8.3e-05 s⁻¹. Still for that read-out and setting: next, G9C G29A G32A: below 1e-05 s⁻¹; G9A A33C A39C U57A: below 1e-05 s⁻¹; A14G G41U U69A: 8.6e-05 ± 2e-05 s⁻¹.

The variants in a further series derive from B1. Briefly: self-cleavage kobs at 10000 uM GlcN6P; higher = faster cleavage; RNA array. The following applies: with glucosamine-6-phosphate. Put shortly: as §1
On to A12C A33G, for which the “self-cleavage kobs at 10000 uM GlcN6P” value was below 1e-05 s⁻¹.

Source of the values: the supplement of paper PMC7125110.
